Reference: patent publication US20260258117A1 (ACADEMISCH ZIEKENHUIS LEIDEN H O D N LUMC, published 2026)

Biological target: T1, Complement Factor H protein (human, UniProt P08603 19-1231)
T1 construct: Plasma protein, bought purified or present in normal human serum; also called FH; CFH
Assay: bispecific ELISA and complement activation assay on biotinylated BSA-DNP, FH detected

T1 sequence (P08603 19-1231 limits assumed): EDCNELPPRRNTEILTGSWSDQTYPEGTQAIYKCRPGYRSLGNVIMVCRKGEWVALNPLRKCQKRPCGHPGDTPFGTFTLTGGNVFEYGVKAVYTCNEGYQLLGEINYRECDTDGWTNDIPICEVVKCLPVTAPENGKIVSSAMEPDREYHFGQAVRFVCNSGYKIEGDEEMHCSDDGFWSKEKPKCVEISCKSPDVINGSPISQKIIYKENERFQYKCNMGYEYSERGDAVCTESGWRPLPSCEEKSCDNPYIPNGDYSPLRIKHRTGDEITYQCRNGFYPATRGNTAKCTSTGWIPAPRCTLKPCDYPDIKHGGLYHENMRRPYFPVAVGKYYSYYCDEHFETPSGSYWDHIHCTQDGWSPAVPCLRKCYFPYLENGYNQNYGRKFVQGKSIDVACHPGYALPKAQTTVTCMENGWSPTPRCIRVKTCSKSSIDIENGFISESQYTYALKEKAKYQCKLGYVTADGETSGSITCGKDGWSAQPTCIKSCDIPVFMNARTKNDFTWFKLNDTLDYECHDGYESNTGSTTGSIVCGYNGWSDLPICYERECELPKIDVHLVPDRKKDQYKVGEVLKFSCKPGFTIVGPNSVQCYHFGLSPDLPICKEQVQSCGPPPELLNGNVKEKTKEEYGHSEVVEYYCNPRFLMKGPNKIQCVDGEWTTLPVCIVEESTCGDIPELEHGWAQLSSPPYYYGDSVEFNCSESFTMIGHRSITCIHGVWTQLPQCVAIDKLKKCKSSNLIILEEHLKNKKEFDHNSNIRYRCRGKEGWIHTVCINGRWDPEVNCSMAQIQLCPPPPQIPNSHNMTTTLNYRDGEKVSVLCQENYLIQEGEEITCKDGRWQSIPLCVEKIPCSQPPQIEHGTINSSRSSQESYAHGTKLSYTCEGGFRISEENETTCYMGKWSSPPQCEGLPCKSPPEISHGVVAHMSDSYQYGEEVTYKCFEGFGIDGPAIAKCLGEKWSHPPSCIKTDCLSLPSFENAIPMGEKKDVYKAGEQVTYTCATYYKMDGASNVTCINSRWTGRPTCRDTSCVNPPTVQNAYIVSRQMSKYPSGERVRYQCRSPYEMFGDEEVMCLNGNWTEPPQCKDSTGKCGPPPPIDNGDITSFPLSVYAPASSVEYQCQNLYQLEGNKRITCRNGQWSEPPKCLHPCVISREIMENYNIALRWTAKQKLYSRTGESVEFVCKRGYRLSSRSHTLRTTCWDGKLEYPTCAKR

binding result: binds
B1: Anti-FH F405L LALAPG, Anti-biotin K409R LALAPG (bispecific antibody, human IgG1, kappa, L234A L235A)
heavy 1: EVQLQQSGPELVKPGASVKISCKASGYSFTGYFIHWVKQSHVKSLEWFGRINPYNGATDYNQNFKDKAILTIDESSSTAYMEIHSLTSDDSAVYYCARGLFLDYWGQGTTLTVSSASTKGPSVFPLAPSSKSTSGGTAALGCLVKDYFPEPVTVSWNSGALTSGVHTFPAVLQSSGLYSLSSVVTVPSSSLGTQTYICNVNHKPSNTKVDKRVEPKSCDKTHTCPPCPAPEAAGGPSVFLFPPKPKDTLMISRTPEVTCVVVDVSHEDPEVKFNWYVDGVEVHNAKTKPREEQYNSTYRVVSVLTVLHQDWLNGKEYKCKVSNKALGAPIEKTISKAKGQPREPQVYTLPPSREEMTKNQVSLTCLVKGFYPSDIAVEWESNGQPENNYKTTPPVLDSDGSFLLYSKLTVDKSRWQQGNVFSCSVMHEALHNHYTQKSLSLSPGK
light 1: DILMTQSPSSMSVSLGDTVSITCHASQGITSNIGWLQQKPGKSFKGLIYHGTNLEDGVPSRFSGSGSGADYSLTISSLESEDFADYYCVQYAQFPWTFGGGTKLEIKRTVAAPSVFIFPPSDEQLKSGTASVVCLLNNFYPREAKVQWKVDNALQSGNSQESVTEQDSKDSTYSLSSTLTLSKADYEKHKVYACEVTHQGLSSPVTKSFNRGEC
heavy 2: QVKLQESGPGLVAPSQSLSITCTVSGFSLTAYGVDWVRQPPGKGLEWLGVIWGGGRTNYNSGLMSRLSIRKDNSKSQVFLTMNSLQTDDTAKYYCVKHTNWDGGFAYWGQGTTVTVSSASTKGPSVFPLAPSSKSTSGGTAALGCLVKDYFPEPVTVSWNSGALTSGVHTFPAVLQSSGLYSLSSVVTVPSSSLGTQTYICNVNHKPSNTKVDKRVEPKSCDKTHTCPPCPAPEAAGGPSVFLFPPKPKDTLMISRTPEVTCVVVDVSHEDPEVKFNWYVDGVEVHNAKTKPREEQYNSTYRVVSVLTVLHQDWLNGKEYKCKVSNKALGAPIEKTISKAKGQPREPQVYTLPPSREEMTKNQVSLTCLVKGFYPSDIAVEWESNGQPENNYKTTPPVLDSDGSFFLYSRLTVDKSRWQQGNVFSCSVMHEALHNHYTQKSLSLSPGK
light 2: DVVMTQSPLSLPVSLGDQASISCRSGQGLVYSNGDTYLHWYLQKPGQSPKLLIYKVSNRFSGVPDRFSGSGSGTDFTLKISRVEAEDLGVYFCSQSTHFPFTFGSGTKLEIKRTVAAPSVFIFPPSDEQLKSGTASVVCLLNNFYPREAKVQWKVDNALQSGNSQESVTEQDSKDSTYSLSSTLTLSKADYEKHKVYACEVTHQGLSSPVTKSFNRGEC
notes: Made by controlled Fab-arm exchange; also called anti-FH x anti-biotin
